From PMC10082178

Tests used:
[1] = target: N-terminal eGFP-tagged human CLEC-2 (CLEC-2-eGFP) (human) (UniProt Q9P126)
[2] = target: integrin αIIbβ3 (human (endogenous in platelets)) (UniProt P05106); assay: native gel or EMSA; SMA-PAGE: whole cell SMALPs of resting human platelets (2.5% SMA, NaCl to 500 mM) on native Tris-Glycine gels, western blot with anti-αIIb or anti-CLEC-2 AYP2

UniProt Q9P126, sequence (Q9P126 whole entry): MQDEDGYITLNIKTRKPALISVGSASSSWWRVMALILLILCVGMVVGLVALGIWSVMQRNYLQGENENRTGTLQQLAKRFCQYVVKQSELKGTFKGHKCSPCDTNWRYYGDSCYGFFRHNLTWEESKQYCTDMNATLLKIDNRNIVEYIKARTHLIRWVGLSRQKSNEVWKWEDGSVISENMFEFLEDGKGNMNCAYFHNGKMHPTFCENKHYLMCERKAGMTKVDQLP

Row | Substance | NFAT-luciferase response to rhodocytin (30 nM) in low-expressing CLEC-2-eGFP (100 ng) DT40 cells: percent blocked by LUAS-2 (3 μM, 30 min before rhodocytin) [1] | stoichiometry N [2]
1 | rhodocytin (complex) | 50% | –
2 | integrin αIIbβ3 (from UniProt P05106 27-788) (complex) | – | 2
